The assay deals with T1, PAR-1 N-terminal tail peptide (TR33-62) (artificial).
T1 sequence (peptide): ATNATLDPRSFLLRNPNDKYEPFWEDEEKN

B1: KKK191-193AAA-APC (enzyme)
chain: ANSFLEELRHSSLERECIEEICDFEEAKEIFQNVDDTLAFWSKHVDGDQCLVLPLEHPCASLCCGHGTCIDGIGSFSCDCRSGWEGRFCQREVSFLNCSLDNGGCTHYCLEEVGWRRCSCAPGYKLGDDLLQCHPAVKFPCGRPWKRMEKKRSHLKRDTEDQEDQVDPRLIDGKMTRRGDSPWQVVLLDSAAALACGAVLIHPSWVLTAAHCMDESKKLLVRLGEYDLRRWEKWELDLDIKEVFVHPNYSKSTTDNDIALLHLAQPATLSQTIVPICLPDSGLAERELNQAGQETLVTGWGYHSSREKEAKRNRTFVLNFIKIPVVPHNECSEVMSNMVSENMLCAGILGDRQDACEGDSGGPMVASFHGTWFLVGLVSWGEGCGLLHNYGVYTKVSRYLDWIHGHIRDKEAPQKSWAP
As to B1, the PAR-1 peptide (TR33-62) cleavage (% rwt-APC), catalytic efficiency by HPLC amounted to 88 % rwt-APC.
